The record followed here is US20250236679A1 (Chugai, published 2025).

One experiment deals with T1, human DLL3-Fc (human).
T1 construct: also called soluble DLL3 protein
T1 chain: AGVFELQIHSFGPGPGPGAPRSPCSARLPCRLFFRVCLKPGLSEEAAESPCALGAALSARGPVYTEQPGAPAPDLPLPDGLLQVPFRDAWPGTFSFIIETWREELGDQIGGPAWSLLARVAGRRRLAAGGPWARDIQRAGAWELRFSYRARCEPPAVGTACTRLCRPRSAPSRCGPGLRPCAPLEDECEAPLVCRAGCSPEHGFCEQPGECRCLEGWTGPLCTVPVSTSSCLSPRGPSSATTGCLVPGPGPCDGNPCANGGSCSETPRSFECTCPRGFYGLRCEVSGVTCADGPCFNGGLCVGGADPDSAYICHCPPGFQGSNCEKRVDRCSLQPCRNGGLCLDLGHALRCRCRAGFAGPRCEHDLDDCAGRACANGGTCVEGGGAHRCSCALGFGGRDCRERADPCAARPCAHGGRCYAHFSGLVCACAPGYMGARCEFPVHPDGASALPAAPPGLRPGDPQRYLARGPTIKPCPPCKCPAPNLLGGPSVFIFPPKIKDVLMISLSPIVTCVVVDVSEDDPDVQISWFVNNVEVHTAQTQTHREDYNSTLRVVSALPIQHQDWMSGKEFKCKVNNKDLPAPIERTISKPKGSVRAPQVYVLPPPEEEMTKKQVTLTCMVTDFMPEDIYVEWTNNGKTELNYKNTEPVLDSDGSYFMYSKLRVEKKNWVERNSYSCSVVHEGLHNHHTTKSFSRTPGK
The experiment can be described thus: ELISA, immobilized human DLL3-Fc. The procedure:
The competition of a chimeric antibody and a mouse antibody for binding to the antigen molecule was analyzed by ELISA (FIG. 8 (b)). Human DLL3-Fc was added at 10 ng/well to a Nunc immunoplate and immobilized thereon. A mixture (final concentration: 50 ng/ml) of the chimeric antibody and the appropriately diluted mouse antibody was added to the DLL3-Fc protein-immobilized plate. The plate was incubated at room temperature for 1 hour and then washed. Alkaline phosphatase-labeled anti-human antibodies were added thereto and incubated. After the incubation, Sigma 104 was added thereto, and the absorbance was measured. The binding of the chimeric antibody to the antigen molecule competed with that of the original mouse monoclonal antibody thereto.

For experiment [1], the target named is T2, human DLL3 expressed on cells (human DLL3/BaF3) (human, UniProt Q9NYJ7 27-618).
T2 construct: Full-length human DLL3 on the membrane of transformed Ba/F3 cells; The ADCC assays also used NCI-H1184 small-cell lung cancer cells that express DLL3; also called Delta-like 3; NM_016941
T2 sequence: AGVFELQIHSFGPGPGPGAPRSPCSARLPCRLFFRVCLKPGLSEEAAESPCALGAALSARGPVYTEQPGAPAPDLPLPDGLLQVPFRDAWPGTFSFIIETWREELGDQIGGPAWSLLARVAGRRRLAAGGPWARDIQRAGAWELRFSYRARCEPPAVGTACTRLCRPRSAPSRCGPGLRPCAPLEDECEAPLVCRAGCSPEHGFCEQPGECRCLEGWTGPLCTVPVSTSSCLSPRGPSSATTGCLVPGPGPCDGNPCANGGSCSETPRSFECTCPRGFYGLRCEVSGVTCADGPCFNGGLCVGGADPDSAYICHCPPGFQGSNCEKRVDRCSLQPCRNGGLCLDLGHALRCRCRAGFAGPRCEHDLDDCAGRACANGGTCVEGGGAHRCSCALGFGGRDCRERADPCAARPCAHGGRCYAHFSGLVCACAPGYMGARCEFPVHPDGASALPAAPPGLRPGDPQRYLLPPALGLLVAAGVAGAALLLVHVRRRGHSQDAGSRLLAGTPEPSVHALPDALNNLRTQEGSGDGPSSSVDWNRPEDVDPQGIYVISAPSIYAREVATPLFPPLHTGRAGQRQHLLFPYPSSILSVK
The experiment can be described thus: flow cytometry on human DLL3/BaF3 cells, antibody 5 µg/ml. How it is done:
The binding of each monoclonal antibody to human DLL3 expressed on a cell membrane and the behavior of a human DLL3-monoclonal antibody complex on the cell membrane were analyzed by flow cytometry. Human DLL3/BaF3 cells were suspended in a FACS buffer (PBS containing 1% fetal bovine serum and 0.05% sodium azide). The cell suspension of 1×10⁶ cells/ml was reacted with the monoclonal antibody (final concentration: 5 μg/ml) at 4° C. for 30 minutes. After centrifugation and supernatant removal, the cells were washed once with a FACS buffer. FITC-labeled anti-mouse IgG (H+L) antibodies (Beckman Coulter, Inc.) were added thereto and incubated at 4° C. for 30 minutes. Unreacted FITC antibodies were removed by centrifugation. Then, the cells were resuspended and analyzed using a flow cytometer FACSCalibur (Becton, Dickinson and Company). For the purpose of analyzing the movement or disappearance of the DLL3-antibody complex from the cell membrane, human DLL3/BaF3 cells were suspended in an RPMI1640 culture medium containing 10% fetal bovine serum (FBS) and mouse IL3. The cell suspension of 1×10⁶ cells/ml was mixed with the monoclonal antibody (final concentration: 5 μg/ml) and reacted at 37° C. for 1 hour or 4 hours in a CO2 incubator. After the reaction, the amount of the antibody bound onto the cell membrane was analyzed by flow cytometry in the same way as above. The geometric mean of fluorescence intensity values (X Geo Mean) in a cell histogram plot was determined using the analytical software CELLQuest Pro included in FACSCalibur. All the isolated anti-DLL3 monoclonal antibodies bound to DLL3 on the cells (FIG. 3(a)). The reaction of the antibody with the cells at 4° C. inhibits membrane fluidity such as the cellular uptake of the DLL3-antibody complex from the cell membrane. The reaction of the antibody with the cells at 37° C. may cause the cellular uptake of the DLL3-antibody complex and shading (release from the cell membrane) resulting from protease digestion or the like. The amount of each monoclonal antibody bound onto the cell membrane as a result of incubation at 37° C. for 1 hour or 4 hours is shown in FIG. 3(b) as a relative value compared with that at 4° C. As a result of incubation at 37° C., the amount of the antibody DL303, DL304, DL305, DL308, DL309, or MAB4315 on the surface of the cell membrane was decreased.
In general terms: In flow cytometry, cells or beads pass a laser one at a time.

B1: DL301 mouse monoclonal antibody (antibody, mouse IgG1, kappa)
heavy: QVQLQQSGADLVRPGTSVKVSCKASGYAFTNYLIEWIKQRPGQGLEWIGVMNPGSGGTHYSEKFRGKATLTADKSSSTAYMQLISLTSDDSAVYFCARSDYDYVTYAMDYWGQGTSVTVSSAKTTPPSVYPLAPGSAAQTNSMVTLGCLVKGYFPEPVTVTWNSGSLSSGVHTFPAVLQSDLYTLSSSVTVPSSTWPSETVTCNVAHPASSTKVDKKIVPRDCGCKPCICTVPEVSSVFIFPPKPKDVLTITLTPKVTCVVVDISKDDPEVQFSWFVDDVEVHTAQTQPREEQFNSTFRSVSELPIMHQDWLNGKEFKCRVNSAAFPAPIEKTISKTKGRPKAPQVYTIPPPKEQMAKDKVSLTCMITDFFPEDITVEWQWNGQPAENYKNTQPIMNTNGSYFVYSKLNVQKSNWEAGNTFTCSVLHEGLHNHHTEKSLSHSPGK
light: DIKMTQSPSSMYASLGERVTITCKASQDINSYLIWFQQKPGKSPKTLIYRTNRLVDGVPSRFSGSGSGQDYSLTISSLEYGDMGIYYCLQYDEFPFTFGSGTKLEIKRADAAPTVSIFPPSSEQLTSGGASVVCFLNNFYPKDINVKWKIDGSERQNGVLNSWTDQDSKDSTYSMSSTLTLTKDEYERHNSYTCEATHKTSTSPIVKSFNRNEC
notes: also called DL301 mouse antibody
Consider B1, for which the binding result (with human DLL3-Fc; in experiment [1]) was “binds” in each case.

B2: DL312 mouse monoclonal antibody (antibody, mouse IgG1, kappa)
heavy: EVKLVESGGGLVQPGGSLSLSCAASGFTFTDYYMNWVRQPPGKALEWLALIRNKANGYTTEYNASVKGRFTISRDNSQNILYLQMNALRAEDSATYYCARDSDGYYEYYFDYWGQGTTLTVSSAKTTPPSVYPLAPGSAAQTNSMVTLGCLVKGYFPEPVTVTWNSGSLSSGVHTFPAVLQSDLYTLSSSVTVPSSTWPSETVTCNVAHPASSTKVDKKIVPRDCGCKPCICTVPEVSSVFIFPPKPKDVLTITLTPKVTCVVVDISKDDPEVQFSWFVDDVEVHTAQTQPREEQFNSTFRSVSELPIMHQDWLNGKEFKCRVNSAAFPAPIEKTISKTKGRPKAPQVYTIPPPKEQMAKDKVSLTCMITDFFPEDITVEWQWNGQPAENYKNTQPIMNTNGSYFVYSKLNVQKSNWEAGNTFTCSVLHEGLHNHHTEKSLSHSPGK
light: DIQMTQSPSSLSASLGERVSLTCRASQEISDYLSWLQQKPDGTIKRLIFAASTLDSGVPKRFSGSRSGSDFSLSISSLESEDFADYYCLQYASYPYTFGSGTKLEIKRADAAPTVSIFPPSSEQLTSGGASVVCFLNNFYPKDINVKWKIDGSERQNGVLNSWTDQDSKDSTYSMSSTLTLTKDEYERHNSYTCEATHKTSTSPIVKSFNRNEC
notes: also called D312; DL312 mouse antibody
As to B2, the binding result (in the experiment with human DLL3-Fc; in experiment [1]) was “binds” each time.

B3: DL306 mouse monoclonal antibody (antibody, mouse IgG1, kappa)
heavy: EVQLQQSGPELVKPGASVKMSCRASGYTFTDYYMKWVKQSHGKSLEWIGDINPNNGDTFYNQKFKGKATLTIDKSSSTAYMQLNSLTSDDSAVYYCARDGNYAYFDYWGQGTTLTVSSAKTTPPSVYPLAPGSAAQTNSMVTLGCLVKGYFPEPVTVTWNSGSLSSGVHTFPAVLQSDLYTLSSSVTVPSSTWPSETVTCNVAHPASSTKVDKKIVPRDCGCKPCICTVPEVSSVFIFPPKPKDVLTITLTPKVTCVVVDISKDDPEVQFSWFVDDVEVHTAQTQPREEQFNSTFRSVSELPIMHQDWLNGKEFKCRVNSAAFPAPIEKTISKTKGRPKAPQVYTIPPPKEQMAKDKVSLTCMITDFFPEDITVEWQWNGQPAENYKNTQPIMNTNGSYFVYSKLNVQKSNWEAGNTFTCSVLHEGLHNHHTEKSLSHSPGK
light: DIVLTQSPASLAVSLGQRATISCRASKSVSTSGYSYMHWYQQKPGQPPKLLIFLASNLESGVPARFSGSGSGTDFTLNIHPVEEEDAATYYCQHSRHLPWTFGGGTKLEIKRADAAPTVSIFPPSSEQLTSGGASVVCFLNNFYPKDINVKWKIDGSERQNGVLNSWTDQDSKDSTYSMSSTLTLTKDEYERHNSYTCEATHKTSTSPIVKSFNRNEC
notes: also called DL306 mouse antibody
B3: the binding result (with human DLL3-Fc; in experiment [1]) was “binds” in each case.
